The text below walks through data of patent US20210246218A1 (LYVGEN BIOPHARMA SUZHOU, published 2021).

Common to all, as to assay: ELISA, protein coated at 1 µg/mL
(In general: In an ELISA, binding on a coated surface is turned into a signal by an enzyme label.)

For one experiment, the target named is human PD-1 protein (human, UniProt Q15116 25-167). As for the experimental part:
(§1) The plate was decanted and washed once; assay diluent was added at 200 μL/well. After a 1-hour incubation at room temperature, the plate was washed with PBST one time. […] These samples were added into the plate 50 μL/well. The plate was incubated 1 hour at room temperature and then washed three times with PBST. Goat anti-human IgG-H+L HRP-conjugated at 1:100,000 dilution or goat anti-mouse IgG (H+L) secondary antibody, HRP, at 1:50,000 dilution was added to the plate at 100 μL/well. The plate was incubated 1 hour at room temperature followed by washing with PBST four times. The TMB substrate solution was added 100 μL/well. The color was permitted to develop for 15 minutes and then 100 μL/well 2N H₂SO₄ was added to terminate the reaction. Absorbance at 450 nm and 620 nm was determined by a Tecan F200 Pro reader.

The target of a further experiment is human PD-L1 protein (human, UniProt Q9NZQ7 19-238). As for the experimental part: as §1
For the next experiment, the target named is T1, human CD20 protein (human, UniProt P11836 1-297, limits assumed).
T1 sequence (looked up): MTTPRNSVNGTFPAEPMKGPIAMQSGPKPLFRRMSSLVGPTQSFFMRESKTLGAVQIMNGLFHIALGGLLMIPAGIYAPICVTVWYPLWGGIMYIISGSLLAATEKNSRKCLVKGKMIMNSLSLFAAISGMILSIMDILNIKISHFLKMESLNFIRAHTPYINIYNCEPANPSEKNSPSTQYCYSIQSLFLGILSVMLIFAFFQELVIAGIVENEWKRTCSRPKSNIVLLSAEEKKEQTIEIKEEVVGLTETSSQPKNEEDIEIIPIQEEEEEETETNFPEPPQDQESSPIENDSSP
Here is the method: as §1

A further experiment deals with T2, human B7-H3 protein (human, UniProt Q5ZPR3 29-461, limits assumed).
T2 sequence (looked up): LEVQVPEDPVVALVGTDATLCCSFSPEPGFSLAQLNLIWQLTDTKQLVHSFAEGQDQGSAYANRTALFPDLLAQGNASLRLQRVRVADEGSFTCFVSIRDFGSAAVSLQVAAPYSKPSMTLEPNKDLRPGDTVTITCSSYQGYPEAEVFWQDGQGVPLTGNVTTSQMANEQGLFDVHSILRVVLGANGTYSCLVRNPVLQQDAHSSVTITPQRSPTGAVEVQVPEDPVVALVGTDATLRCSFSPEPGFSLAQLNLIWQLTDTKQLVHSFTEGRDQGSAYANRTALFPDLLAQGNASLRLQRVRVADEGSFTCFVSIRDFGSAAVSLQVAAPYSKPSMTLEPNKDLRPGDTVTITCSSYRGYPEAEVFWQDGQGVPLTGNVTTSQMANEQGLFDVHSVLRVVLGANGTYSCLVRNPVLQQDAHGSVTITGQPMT
Here is the method: as §1

A further experiment addresses T3, mouse CD137 protein (mouse, UniProt P20334 24-187).
T3 construct: Coated on ELISA plates; also called Rodent CD137; murine CD137
T3 sequence (looked up): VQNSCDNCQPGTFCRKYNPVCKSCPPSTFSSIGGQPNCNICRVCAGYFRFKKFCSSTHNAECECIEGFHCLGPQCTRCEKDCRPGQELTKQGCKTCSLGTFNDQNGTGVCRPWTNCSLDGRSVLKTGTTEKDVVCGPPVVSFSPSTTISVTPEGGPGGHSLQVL
As for the experimental part: as §1

The target in another experiment is human VISTA protein (human, UniProt Q9H7M9 33-194). Here is the method:
as §1

Another experiment addresses T4, human B7-H4 protein (human, UniProt Q7Z7D3 29-258, limits assumed).
T4 sequence (looked up): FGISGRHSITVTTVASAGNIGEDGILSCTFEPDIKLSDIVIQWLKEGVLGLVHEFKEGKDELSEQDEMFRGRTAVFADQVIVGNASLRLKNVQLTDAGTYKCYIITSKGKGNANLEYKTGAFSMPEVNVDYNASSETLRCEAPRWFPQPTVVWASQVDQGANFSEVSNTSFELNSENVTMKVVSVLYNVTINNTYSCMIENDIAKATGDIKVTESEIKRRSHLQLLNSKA
Here is the method:
as §1

Another experiment concerns the target T5, human CD19 protein (human, UniProt P15391 20-291).
T5 sequence (looked up): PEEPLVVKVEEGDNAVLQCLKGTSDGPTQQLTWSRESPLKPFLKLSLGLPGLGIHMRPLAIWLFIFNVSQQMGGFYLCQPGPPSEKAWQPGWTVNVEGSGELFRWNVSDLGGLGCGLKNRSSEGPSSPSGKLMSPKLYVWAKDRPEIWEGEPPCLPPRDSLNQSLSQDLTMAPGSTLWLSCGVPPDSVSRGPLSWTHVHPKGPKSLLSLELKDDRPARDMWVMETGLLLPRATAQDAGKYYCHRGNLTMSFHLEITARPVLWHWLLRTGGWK
Here is the method: as §1

The target of another experiment is T6, human TIGIT protein (human, UniProt Q495A1 22-141).
T6 sequence (looked up): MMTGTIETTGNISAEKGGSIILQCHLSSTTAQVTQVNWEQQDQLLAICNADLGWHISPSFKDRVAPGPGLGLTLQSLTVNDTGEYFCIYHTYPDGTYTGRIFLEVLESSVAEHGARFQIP
As for the experimental part: as §1

human PD-L1 protein, sequence (Q9NZQ7 19-238 limits assumed): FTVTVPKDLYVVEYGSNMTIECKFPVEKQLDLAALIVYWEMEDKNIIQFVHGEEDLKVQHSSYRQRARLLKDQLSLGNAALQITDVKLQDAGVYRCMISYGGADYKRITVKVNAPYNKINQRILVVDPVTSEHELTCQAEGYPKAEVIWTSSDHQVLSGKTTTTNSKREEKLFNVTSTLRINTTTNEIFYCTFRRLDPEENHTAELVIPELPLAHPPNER
human PD-1 protein, sequence (Q15116 25-167 limits assumed): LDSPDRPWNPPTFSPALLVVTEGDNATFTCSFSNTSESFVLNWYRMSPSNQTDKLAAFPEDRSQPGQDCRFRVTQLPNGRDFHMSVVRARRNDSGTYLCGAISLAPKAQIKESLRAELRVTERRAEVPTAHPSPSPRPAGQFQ

B1: Clone 3712-IgG1v (IgG1v/kappa) (antibody)
heavy: QVQLVQSGAEVKKPGASVKVSCKASGYTFAGFEMHWVRQAPGQGLEWMGAIDPKTGGTDYNQKFKDRVTMTRDTSISTAYMELSRLRSDDTAVYYCARDLGYFDVWGQGTLVTVSSASTKGPSVFPLAPSSKSTSGGTAALGCLVKDYFPEPVTVSWNSGALTSGVHTFPAVLQSSGLYSLSSVVTVPSSSLGTQTYICNVNHKPSNTKVDKKVEPKSCDKTHTCPPCPAPELLGPSVFLFPPKPKDTLMISRTPEVTCVVVDVEHEDPEVKFNWYVDGVEVHNAKTKPREEQYNSTYRVVSVLTVLHQDWLNGKEYKCKVSNKALPAPIEKTISKAKGQPREPQVYTLPPSREEMTKNQVSLTCLVKGFYPSDIAVEWESNGQPENNYKTTPPVLDSDGSFFLYSKLTVDKSRWQQGNVFSCSVMHEALHNHYTQKSLSLSPGK
light: DIQMTQSPSSLSASVGDRVTITCRASQDIRSNLNWYQQKPGGAVKLLIYYTSRLHSGVPSRFSGSGSGTDYTLTISSLQPEDFATYFCQQSEKLPRTFGGGTKVEIRRTVAAPSVFIFPPSDEQLKSGTASVVCLLNNFYPREAKVQWKVDNALQSGNSQESVTEQDSKDSTYSLSSTLTLSKADYEKHKVYACEVTHQGLSSPVTKSFNRGEC
notes: copies: 2 + 2
Regarding B1, the binding result was “no binding (tested: 10 µg/mL and 1 µg/mL)” with human PD-1 protein; “no binding (tested: 10 µg/mL and 1 µg/mL)” with human PD-L1 protein; “no binding (tested: 10 µg/mL and 1 µg/mL)” with human CD20 protein; “no binding (tested: 10 µg/mL and 1 µg/mL)” with human B7-H3 protein; “no binding (tested: 10 µg/mL and 1 µg/mL)” in the experiment with mouse CD137 protein; “no binding (tested: 10 µg/mL and 1 µg/mL)” with human VISTA protein. Further, the binding result is “no binding (tested: 10 µg/mL and 1 µg/mL)” in the experiment with human B7-H4 protein; “no binding (tested: 10 µg/mL and 1 µg/mL)” in the experiment with human CD19 protein; “no binding (tested: 10 µg/mL and 1 µg/mL)” with human TIGIT protein.
